Measured values: publication PMC9907115
One block for each substance: values may come before it.

What was measured:
Assay in all cases: cross-linking
[1] = target: ^3FLAGPrgH (S. Typhimurium) (UniProt P41783)
[2] = target: ^3FLAGSpaO (S. Typhimurium) (UniProt P40699)
[3] = target: OrgB^R21^p^Bpa (OrgB^M45 variant) (S. Typhimurium)

UniProt P40699, sequence (P40699 whole entry): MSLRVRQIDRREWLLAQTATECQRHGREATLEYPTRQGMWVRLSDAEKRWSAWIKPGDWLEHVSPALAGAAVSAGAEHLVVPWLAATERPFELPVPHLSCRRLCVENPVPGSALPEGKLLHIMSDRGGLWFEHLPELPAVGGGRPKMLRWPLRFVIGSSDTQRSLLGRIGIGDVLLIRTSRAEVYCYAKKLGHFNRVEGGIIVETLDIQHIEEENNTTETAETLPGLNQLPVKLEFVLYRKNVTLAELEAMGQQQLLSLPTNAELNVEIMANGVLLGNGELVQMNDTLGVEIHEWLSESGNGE
UniProt P41783, sequence (P41783 whole entry): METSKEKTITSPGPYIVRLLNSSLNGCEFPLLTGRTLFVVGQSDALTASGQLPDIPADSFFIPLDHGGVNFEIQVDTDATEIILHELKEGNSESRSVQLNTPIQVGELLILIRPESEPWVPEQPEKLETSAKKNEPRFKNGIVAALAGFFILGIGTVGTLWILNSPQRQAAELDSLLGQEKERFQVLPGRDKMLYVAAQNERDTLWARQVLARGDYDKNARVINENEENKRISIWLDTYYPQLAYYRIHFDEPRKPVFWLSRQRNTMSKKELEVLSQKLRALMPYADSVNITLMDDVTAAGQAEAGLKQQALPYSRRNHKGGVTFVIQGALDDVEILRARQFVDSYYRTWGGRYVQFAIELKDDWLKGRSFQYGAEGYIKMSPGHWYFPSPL

- stoichiometry N (PrgH per OrgA) [1]: 2
Substance: OrgA^S70^p^Bpa/L104^p^Bpa (natural protein)

- stoichiometry N (OrgB per SpaO) [2]: 2
Substance: OrgB^K20^p^Bpa (OrgB^M45 variant) (natural protein)

- stoichiometry N [3]: 2
Substance: OrgB^R21^p^Bpa (OrgB^M45 variant) (natural protein)
